{"source": "patent CN111690063A", "about": "(UNIV BEIJING, dated 2020)", "key": {"粒细胞-巨噬细胞集落刺激因子 (human …) [1]": {"target": "T1, 粒细胞-巨噬细胞集落刺激因子 (human granulocyte-macrophage colony-stimulating factor, GM-CSF) (human, UniProt P04141 18-144)", "T1 construct": "also called GM-CSF蛋白", "T1 sequence (P04141 18-144 limits assumed)": "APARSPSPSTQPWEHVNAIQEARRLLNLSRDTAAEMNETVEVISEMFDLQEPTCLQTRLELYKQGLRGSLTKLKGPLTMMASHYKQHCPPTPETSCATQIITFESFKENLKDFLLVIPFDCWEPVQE", "test": "Not stated at this place (summary of advantages); conflicts with the value in Example 4"}, "粒细胞-巨噬细胞集落刺激因子 (human …) [2]": {"target": "T1, 粒细胞-巨噬细胞集落刺激因子 (human …)", "test": "Biolayer interferometry type assay: GM-CSF loaded on SA sensor, nanobody at 1000, 500 and 250 nmol, 30℃"}}, "data": [{"binder": "抗GM-CSF纳米抗体G1 (VHH, Alpaca VHH picked from an immune phage library) VHH: QLQLVESGGGLVQAGGSLRLSCAVSGRPSNVYDMGWFRRVPGKESRLMAYINWSRGSTYYADSVKGRFTISRDNTNNTVYLQMNSLKPEDTAVYYCAARAGPGTPAYNSWGQGTQVTVSS", "values": [{"measurement": "Kd", "setting": "粒细胞-巨噬细胞集落刺激因子 (human …) [1]", "value": 29.5, "unit": "nM"}, {"measurement": "Kd", "setting": "粒细胞-巨噬细胞集落刺激因子 (human …) [2]", "value": 93.7, "unit": "nM"}]}]}
